The target of assay [1] is T1, Cynomolgus monkey CD16-his (cynomolgus monkey).
T1 construct: entry holds ECD, AVI tag, linker and His tag; also called cyno CD16-ECD his; Cyno CD16
T1 chain: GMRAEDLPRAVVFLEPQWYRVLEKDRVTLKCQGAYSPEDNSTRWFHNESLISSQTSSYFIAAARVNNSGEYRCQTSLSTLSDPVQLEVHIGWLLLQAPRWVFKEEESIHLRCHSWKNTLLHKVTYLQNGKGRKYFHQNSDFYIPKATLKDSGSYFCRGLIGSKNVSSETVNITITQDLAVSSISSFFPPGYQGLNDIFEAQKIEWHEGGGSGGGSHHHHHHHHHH
In words: SPR (Biacore), antibody captured on Protein A. Summed up: (§1)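 Protein A–captured antibody was probed with CD16-his ECD in HBS-EP+ at 25 °C: five 2-fold dilutions from 200 nM, 240 s at 30 μL/min, dissociation up to 600 s. Glycine pH 1.5 regenerated the chip. Apparent KD came from a double-referenced 1:1 Langmuir fit.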

In a further assay the target is T2, Human CD16b (SH)-his (human).
T2 construct: entry holds ECD, linker, His tag and AVI tag
T2 chain: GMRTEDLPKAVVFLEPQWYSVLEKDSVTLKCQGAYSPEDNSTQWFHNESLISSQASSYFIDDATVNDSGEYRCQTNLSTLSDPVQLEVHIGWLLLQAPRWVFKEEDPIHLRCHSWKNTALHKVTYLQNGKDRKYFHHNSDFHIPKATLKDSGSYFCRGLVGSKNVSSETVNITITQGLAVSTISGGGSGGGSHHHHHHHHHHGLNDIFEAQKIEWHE
In words: SPR (Biacore), antibody captured on Protein A. In short, it runs like this: as §1
(In general: SPR reads the build-up and loss of mass on a sensor chip optically.)

The target in assay [2] is T3, cynomolgus monkey CD16, full length, on FlpinCHO cells (cynomolgus monkey, UniProt Q8SPW2 17-254).
T3 construct: also called FlpinCHO-cyno CD16; Flipin CHO-cyno CD16
T3 sequence (Q8SPW2 other isoform, or with tags, fused parts or gaps limits assumed): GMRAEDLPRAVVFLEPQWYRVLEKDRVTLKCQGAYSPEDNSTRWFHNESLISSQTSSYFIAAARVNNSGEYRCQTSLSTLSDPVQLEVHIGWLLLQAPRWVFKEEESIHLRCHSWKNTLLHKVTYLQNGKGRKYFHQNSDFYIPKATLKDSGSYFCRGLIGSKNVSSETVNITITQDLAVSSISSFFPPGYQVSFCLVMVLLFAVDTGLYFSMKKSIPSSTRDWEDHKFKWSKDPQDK
In words: FACS on FlpinCHO cells. In short, it runs like this: (§2)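 FlpinCHO cells expressing full-length cynomolgus CD16, blocked in PBS/2% BSA at 2×10⁶ cells/ml, incubated with antibody at various concentrations 1 h on ice. Flow cytometry MFI fitted to give EC50.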

For assay [3], the target named is T3, cynomolgus monkey CD16, full length, on …. In words: FACS on FlpinCHO cells. Summed up: as §2
The source holds these as a separate data set.

In assay [4] the target is T4, human CD16a (158V), full length, on cells (human, UniProt P08637 17-254). In words: cell-based or functional assay.
T4 sequence (P08637 17-254 F176V limits assumed): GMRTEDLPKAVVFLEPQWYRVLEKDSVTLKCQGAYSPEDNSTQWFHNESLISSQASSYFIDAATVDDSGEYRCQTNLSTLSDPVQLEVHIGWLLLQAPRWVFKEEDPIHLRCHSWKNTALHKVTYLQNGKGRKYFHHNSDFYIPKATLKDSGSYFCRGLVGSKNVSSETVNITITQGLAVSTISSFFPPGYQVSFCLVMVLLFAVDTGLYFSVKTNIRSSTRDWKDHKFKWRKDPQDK
The target of assay [5] is T5, human CD16b (NA2), full length, on FlpinCHO cells (human, UniProt O75015 17-200).
T5 construct: also called FlpinCHO-human CD16b (NA2)
T5 chain: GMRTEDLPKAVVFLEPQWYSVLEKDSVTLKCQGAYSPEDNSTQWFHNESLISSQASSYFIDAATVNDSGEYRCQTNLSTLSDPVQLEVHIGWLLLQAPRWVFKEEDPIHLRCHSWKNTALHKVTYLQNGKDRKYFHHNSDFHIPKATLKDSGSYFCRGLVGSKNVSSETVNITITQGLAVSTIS
Kind of assay: FACS on FlpinCHO cells. Summed up: (§3)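 Trypsin-detached FlpinCHO cells expressing full-length CD16b were blocked in PBS+2% BSA and incubated on ice for 1 hour with antibody at varying concentrations. Binding read by flow cytometry as MFI; EC50 from curve fitting.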

Assay [6] deals with T6, human CD16b (NA1), full length, on FlpinCHO cells (human, UniProt O75015 17-200).
T6 construct: also called FlpinCHO-human CD16b (NA1)
T6 chain: T5 chain with S20R, S49N, N66D, I90V
In words: FACS on FlpinCHO cells. In short, it runs like this:
as §3

Assay [7] addresses T4, human CD16a (158V), full length, on …. Kind of assay: FACS on FlpinCHO cells.
Assay [8] addresses human CD16a (158F), full length, on FlpinCHO cells (human, UniProt P08637 17-254). Kind of assay: FACS on FlpinCHO cells.

Positions count from the first letter of the chain named. Where two headings read alike, the source gives them in different places.

human CD16a (158F), full length, on FlpinCHO cells, sequence (P08637 17-254 limits assumed): as the sequence (P08637 17-254 F176V limits assumed) above, with V160F counted along it

B1: VHH11 VHH-Fc antibody (Fc fusion)
chain: EVQVVESGGGLAQAGGSLRLSCAVSGITFSSYAMGWYRQDPGKQRELVAAINRFGLTNYADSVKGRFTISRDNAKNTVYLQMTSLKPEDTAVYYCNTGGVYSHPNYYTGTYWGQGTQVTVSSEPKSSDKTHTCPPCPAPEFEGGPSVFLFPPKPKDTLMISRTPEVTCVVVAVSHEDPEVKFNWYVDGVEVHNAKTKPREEQYNSTYRVVSVLTVLHQDWLNGKEYKCKVSNKALPAPIEKTISKAKGQPREPQVYTLPPSREEMTKNQVSLTCLVKGFYPSDIAVEWESNGQPENNYKTTPPVLDSDGSFFLYSKLTVDKSRWQQGNVFSCSVMHEALHNHYTQKSLSLSPGK
B1: in assay [1], the Kd (usually the equilibrium constant for the complex coming apart) is 23.6 nM; the koff (as a rule, a measure of how fast the partners let go of each other) is 0.015 s⁻¹; the kon – broadly, a measure of how fast the partners come together – came to 633000 M⁻¹ s⁻¹. In the assay with Human CD16b (SH)-his, the Kd was 4930 nM, the koff worked out at 0.193 s⁻¹ and the kon came out at 39100 M⁻¹ s⁻¹. In assay [2], the EC50 (commonly the concentration at which the effect is half-maximal) came to 0.41 nM and the “Maximum mean fluorescence intensity” value amounted to 22000.

B2: VHH12 VHH-Fc antibody (Fc fusion)
chain: B1 chain with E1Q, V4L, A12V, V24A, D40A, S62F, D72V, N105D
As for B2, the Kd in assay [1] turned out to be 8.51 nM; in the assay with Human CD16b (SH)-his, 1160 nM. Also, the koff amounted to 0.0101 s⁻¹ in assay [1] and 0.106 s⁻¹ with Human CD16b (SH)-his. The on-rate constant (kon) in assay [1] stood at 1.18e+06 M⁻¹ s⁻¹; with Human CD16b (SH)-his, 91500 M⁻¹ s⁻¹. For the same molecule, the EC50 is 0.24 nM in [2]; 0.35 nM in assay [3]; 0.7 nM in assay [6]; 0.24 nM in assay [7]; 0.23 nM in [8]. The “Maximum mean fluorescence intensity” value in assay [2] is 22200; in [3], 18400; in assay [5], 87900; in assay [6], 60500; in assay [7] it was 8050; in assay [8] it was 8730. Besides, in [4], the “EC50, activation activity for Jurkat cell” value is 0.01 nM. The Maximum fluorescence value in assay [4] was 142000.

B3: VHH06 VHH-Fc antibody (Fc fusion)
chain: EVQLVESGGGLVQAGGSLRLSCVASGSTWTTYAVRWYRQAPGKQREWVAFISVDGSTNYPDSVKGRFIVSRDNAKNTVYLQMNSLKPEDTADYICRVGGQYWGQGTQVTVSSEPKSSDKTHTCPPCPAPEFEGGPSVFLFPPKPKDTLMISRTPEVTCVVVAVSHEDPEVKFNWYVDGVEVHNAKTKPREEQYNSTYRVVSVLTVLHQDWLNGKEYKCKVSNKALPAPIEKTISKAKGQPREPQVYTLPPSREEMTKNQVSLTCLVKGFYPSDIAVEWESNGQPENNYKTTPPVLDSDGSFFLYSKLTVDKSRWQQGNVFSCSVMHEALHNHYTQKSLSLSPGK
B3: in [4], the “EC50, activation activity for Jurkat cell” value stood at 0.02 nM. The molecule also showed a Maximum fluorescence value in assay [4] of 168000. Further, the “Maximum mean fluorescence intensity” value in [5] stood at 468; in [6] it was 54100; in assay [7] it was 9250; in [8] it was 10200. The EC50 was determined as 0.74 nM in assay [6], 0.66 nM in assay [7] and 0.61 nM in [8].
